B1: tRF-1-Ser unlabelled (mimic) (ssRNA)
RNA: GAAGCGGGUGCUCUUAUUUU
B2: tRF-1-Ser-UGCU-mut (ssRNA)
RNA: GAAGCGGGCAACCUUAUUUU
B3: tRF-1-Ser (ssRNA)
RNA: GAAGCGGGUGCUCUUAUUUU

Assays:
[1] = molecular target: T1, MBNL1 recombinant (UniProt Q9NR56 1-388); assay: competition; excess unlabelled vs biotin-labelled tRF-1-Ser; EMSA; EMSA: REMSA Binding Buffer (Beyotime), 4 °C, 10 min; 6% TBE PAGE in ice box; salt and pH not given; details: protein: commercial
T1 sequence: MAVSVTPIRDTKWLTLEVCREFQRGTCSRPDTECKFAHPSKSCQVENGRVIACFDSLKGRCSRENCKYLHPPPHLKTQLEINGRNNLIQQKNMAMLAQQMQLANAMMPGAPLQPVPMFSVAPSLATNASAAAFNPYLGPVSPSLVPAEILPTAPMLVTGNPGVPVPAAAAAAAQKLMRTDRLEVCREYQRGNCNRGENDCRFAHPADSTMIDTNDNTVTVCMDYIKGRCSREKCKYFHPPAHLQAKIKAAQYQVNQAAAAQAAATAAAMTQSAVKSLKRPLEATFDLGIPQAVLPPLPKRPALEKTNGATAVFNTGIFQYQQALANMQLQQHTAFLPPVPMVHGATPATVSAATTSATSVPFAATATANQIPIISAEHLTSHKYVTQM

[2] = molecular target: T1, MBNL1 recombinant; assay: EMSA; EMSA: REMSA Binding Buffer (Beyotime), 4 °C, 10 min; 6% TBE PAGE in ice box; salt and pH not given; details: protein: commercial; label: biotin

| Binder | binding result [1] | binding result [2] |
| --- | --- | --- |
| B1 | binds |  |
| B2 |  | no binding |
| B3 |  | binds |
